According to patent US20260209362A1 (VIB VZW, published 2026):

T1: biotinylated recombinant human IL-12Rβ2 (human, UniProt Q99665 24-622, random biotinylated)
T1 construct: Recombinant protein produced in-house, biotinylated; also called hIL-12RB2; human IL-12RB2
T1 sequence: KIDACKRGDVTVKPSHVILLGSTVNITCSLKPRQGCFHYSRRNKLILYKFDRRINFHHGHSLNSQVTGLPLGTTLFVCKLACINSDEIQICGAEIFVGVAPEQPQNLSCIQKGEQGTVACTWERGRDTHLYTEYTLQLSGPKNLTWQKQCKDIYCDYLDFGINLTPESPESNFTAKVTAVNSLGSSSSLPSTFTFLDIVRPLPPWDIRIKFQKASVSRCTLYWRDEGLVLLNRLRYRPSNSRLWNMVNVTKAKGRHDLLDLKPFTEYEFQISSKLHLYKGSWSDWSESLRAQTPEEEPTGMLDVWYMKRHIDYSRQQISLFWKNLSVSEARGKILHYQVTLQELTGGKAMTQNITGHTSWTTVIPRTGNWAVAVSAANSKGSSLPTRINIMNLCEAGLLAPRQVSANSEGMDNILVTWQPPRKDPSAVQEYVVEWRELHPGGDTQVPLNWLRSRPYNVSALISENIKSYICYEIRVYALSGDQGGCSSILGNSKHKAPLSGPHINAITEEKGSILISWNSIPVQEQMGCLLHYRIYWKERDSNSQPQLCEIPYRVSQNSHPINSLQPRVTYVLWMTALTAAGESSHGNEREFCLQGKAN

T2: biotinylated recombinant mouse IL-12Rβ2 (mouse, UniProt P97378 24-637, random biotinylated)
T2 construct: Recombinant protein produced in-house, biotinylated; also called mIL-12RB2; mouse IL-12RB2
T2 sequence: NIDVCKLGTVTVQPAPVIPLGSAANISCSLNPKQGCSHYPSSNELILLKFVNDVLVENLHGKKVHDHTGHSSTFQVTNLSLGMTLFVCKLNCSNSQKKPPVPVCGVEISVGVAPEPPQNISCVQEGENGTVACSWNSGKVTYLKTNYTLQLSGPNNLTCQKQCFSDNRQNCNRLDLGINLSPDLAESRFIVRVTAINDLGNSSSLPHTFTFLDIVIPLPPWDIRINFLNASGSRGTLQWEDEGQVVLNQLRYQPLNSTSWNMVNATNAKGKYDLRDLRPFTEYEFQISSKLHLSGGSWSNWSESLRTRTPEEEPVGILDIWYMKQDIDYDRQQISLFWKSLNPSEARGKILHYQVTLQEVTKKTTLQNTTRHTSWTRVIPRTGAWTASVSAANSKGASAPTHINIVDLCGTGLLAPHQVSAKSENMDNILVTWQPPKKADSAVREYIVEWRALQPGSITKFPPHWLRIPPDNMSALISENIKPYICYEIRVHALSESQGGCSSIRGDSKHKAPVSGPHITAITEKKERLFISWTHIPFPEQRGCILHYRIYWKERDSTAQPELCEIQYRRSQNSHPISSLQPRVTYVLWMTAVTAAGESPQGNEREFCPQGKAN


Tests used:
[1] = biological target: T1, biotinylated recombinant human IL-12Rβ2; experiment: ELISA, periplasmic extract on biotinylated hIL-12Rβ2, signal over control wells
[2] = biological target: T2, biotinylated recombinant mouse IL-12Rβ2; experiment: ELISA, periplasmic extract on biotinylated mIL-12Rβ2, signal over control wells

| ELISA binding hIL-12RB2/control [1] [ratio] | ELISA binding mIL-12RB2/control [2] [ratio] | Binder |
| --- | --- | --- |
| 0.849 | 4.28 | anti-IL-12Rβ2 VHH clone 20542 (VHH, not shown: small tags and cut ends, tested as periplasmic extract; also called 3CAMS12) VHH: QVQLQESGGGLVQAGGSLRLSCAASGRTFSTYAMGWFRQAPGKEREFVAAISWSGGRTYYADSVKGRFTISRDNAKNTAYLQMSSLIPEDTAVYYCAADPADYTGSYYYQRSYDYWGQGTQVTVSS |
| 1.31 | 12 | anti-IL-12Rβ2 VHH clone 20515 (VHH, not shown: small tags and cut ends, tested as periplasmic extract; also called 3CAM79) VHH: QVQLQESGGGLVQAGGSLRLSCAASGRTFSTYAMGWFRQAPGKEREFVAAISWSGGRTYYADSVKGRFAISRDNAKNTAYLQMNSLKPEDTAVYYCAADPSDYMGSYYGARRYDYWGQGTQVTVSS |
| 0.812 | 3.81 | anti-IL-12Rβ2 VHH clone 20532 (VHH, not shown: small tags and cut ends, tested as periplasmic extract; also called 2CAMS19) VHH: QVQLQESGGGLVQAGGSLRLSCAASGRTFVTYAMGWFRQAPGKEREFVAAISWSGGRLYYADSVKGRFTISRDNAKNTVYLQMNSLKPEDTAVYYCAADPQDYTGRDYQRRRYDYWGQGTQVTVSS |
| 0.991 | 5.71 | anti-IL-12Rβ2 VHH clone 20471 (VHH, not shown: small tags and cut ends, tested as periplasmic extract; also called 2CAM11) VHH: QVQLQESGGGLVQAGGSLRLSCAASGRTFVTYAMGWFRQAPGKEREFVAAISWSGGRLYYADSAKGRFTISRDNAKNTVYLQMNSLKPEDTAVYYCAADPQDYTGRDYQRRRYDYWGQGTQVTVSS |
| 0.99 | 15.2 | anti-IL-12Rβ2 VHH clone 20553 (VHH, not shown: small tags and cut ends, tested as periplasmic extract; also called 3CAMS73) VHH: QVQLQESGGGLVQPGGSLRLSCAASGRTFSTYAMGWFRQAPGKEREFVAAISWSGGRTYYADSVKGRFTISRDNAKNTAYLQMSSLIPEDTAVYYCAADPADYTGSYYYQRSYDYWGQGTQVTVSS |
| 1.03 | 8.48 | anti-IL-12Rβ2 VHH clone 20466 (VHH, not shown: small tags and cut ends, tested as periplasmic extract; also called 2CAM2) VHH: QVQLQESGGGLVQAGDSLRLSCAPSGRTFSTYAMGWFRQAPGKEREFVAGISWSGGRTYYADSVKGRFTISRDNAKNTVYLQMNSLKPEDTAVYYCAADPMDYSGSLYAQRSYDYWGQGTQVTVSS |
| 1.07 | 9.41 | anti-IL-12Rβ2 VHH clone 20479 (VHH, not shown: small tags and cut ends, tested as periplasmic extract; also called 2CAM33) VHH: QVQLQESGGGLVQTGGSLRLSCAASGRTFSNSVMGWFRQAPGKEREFVAALMWSAGSEFYTDSVKGRFSISGDGAKNTVYLQMNSLKAEDTAVYYCAAKNPPHRWSDIGKSPHYEYWGQGTQVTVSS |
| 1.01 | 4.86 | anti-IL-12Rβ2 VHH clone 20484 (VHH, not shown: small tags and cut ends, tested as periplasmic extract; also called 2CAM42) VHH: QVQLQESGGGLVQPGGSLRLSCAASGRTFSNSVMGWFRQAPGKEREFVAALMWSAGSEFYTDSVKGRFSISGDGAKNTVYLQMNSLKAEDTAVYYCAAKNPPHRWSDIGKSPHYEYWGQGTQVTVSS |
| 1.01 | 4.68 | anti-IL-12Rβ2 VHH clone 20483 (VHH, not shown: small tags and cut ends, tested as periplasmic extract; also called 2CAM41) VHH: QVQLQESGGGLVQAGGSLRLSCAASGRTFSNSVIGWFRQAPGKEREFVAALSWSAGSEFYVDSFKGRFSISRDNAKNTVYLQMNSLKPEDTAVYYCAAKNPPHRWSDIGKSPQYAYWGQGTQVTVSS |
| 1.01 | 19.5 | anti-IL-12Rβ2 VHH clone 20496 (VHH, not shown: small tags and cut ends, tested as periplasmic extract; also called 2CAM71) VHH: QVQLQESGGGLVQAGGSLRLSCAASGRTLSNSVMGWFRQAPGKEREFVAALMWSAGSEFYTDSVKGRFSISGDGAKNTVYLQMNSLKAEDTAVYYCAAKNPPHRWSDIGKSPHYEYWGQGTQVTVSS |
| 1.01 | 6.43 | anti-IL-12Rβ2 VHH clone 20474 (VHH, not shown: small tags and cut ends, tested as periplasmic extract; also called 2CAM16) VHH: QVQLQESGGGLVQAGGSLRLSCAASGFTFDDYTIGWFRQAPGKEREFVAALSWSAGSTFFTDSVKDRFSISRDNAKNTVLLQMNSLKPEDTAVYYCAAKNPPHRWSDITKSLQYAYWGQGTQVTVSS |
| 0.973 | 5.44 | anti-IL-12Rβ2 VHH clone 20519 (VHH, not shown: small tags and cut ends, tested as periplasmic extract; also called 2CRMS16) VHH: QVQLQESGGGLVQAGESLRLSCTASGSIFAIDDMYWYRQAPGKQREFVAYITATNSANYLDSVNGRFTISRDNAKNSVYLQMNSLKPEDTAVYYCNAKQIVGFQIDEYWGQGTQVTVSS |
| 1.01 | 5.21 | anti-IL-12Rβ2 VHH clone 20522 (VHH, not shown: small tags and cut ends, tested as periplasmic extract; also called 2CRMS58) VHH: QVQLQESGGGLVQPGGSLRLSCTASGSIFAIDDMYWYRQAPGKQREFVAYITATNSANYLDSVNGRFTISRDNAKNSVYLQMNSLKPEDTAVYYCNAKQIVGFQIDDYWGQGTQVTVSS |
| 0.858 | 13.2 | anti-IL-12Rβ2 VHH clone 20529 (VHH, not shown: small tags and cut ends, tested as periplasmic extract; also called 3CRMS94) VHH: QVQLQESGGGSVQAGDSLRLSCTASGSIFAIDDMYWYRQAPGKQREFVAYITATNSANYLDSVNGRFTISRDNAKNSVYLQMNSLKPEDTAVYYCNAKQIVGFQIDEYWGQGTQVTVSS |
| 0.93 | 9.62 | anti-IL-12Rβ2 VHH clone 20524 (VHH, not shown: small tags and cut ends, tested as periplasmic extract; also called 3CRMS14) VHH: QVQLQESGGGLVQAGGSLRLSCTASGSIFAIDDMYWYRQAPGKQREFVAYITATNSANYLDPVNGRFTISRDNAKNSVYLQMNSLKPEDTAVYYCNAKQIVGFQIDEYWGQGTQVTVSS |
| 0.956 | 7.26 | anti-IL-12Rβ2 VHH clone 20476 (VHH, not shown: small tags and cut ends, tested as periplasmic extract; also called 2CAM20) VHH: QVQLQESGGGSVQAGGSLRLSCAVFGLSFKDYSMSWFRQAPGKEREFVAGISSGGSWIGDITSYADSVKGRFTISRDNAKNMIYLQMNSLKPDDTGVYYCAAASYGTRYYVGSTANEYTTWGQGTQVTVSS |
| 0.994 | 3.96 | anti-IL-12Rβ2 VHH clone 20533 (VHH, not shown: small tags and cut ends, tested as periplasmic extract; also called 2CAMS26) VHH: QVQLQESGGGLVQAGGSLTLSCTASGRTFSSYTTGWFRQAPGKEREFVAGISSGGSWIGDITSYADSVKGRFTISRDNAKNMIYLQMNSLKPDDTGVYYCAAASYGTRYYVGSTANEYTTWGQGTQVTVSS |
| 1.04 | 14.2 | anti-IL-12Rβ2 VHH clone 20467 (VHH, not shown: small tags and cut ends, tested as periplasmic extract; also called 2CAM3) VHH: QVQLQESGGGLVQAGGSLRLSCAPSGRTFSTLAMAWFRQAPGKEREVVATISWSGGRTYYADSVKGRFTISRDNAKNTAYLQMNSLRPDDTAVYYCAARGSDYGSYDYWGQGTQVTVSS |
| 0.955 | 9.24 | anti-IL-12Rβ2 VHH clone 20468 (VHH, not shown: small tags and cut ends, tested as periplasmic extract; also called 2CAM6) VHH: QVQLQESGGGLVQAGGSLRLSCVASGRTFSSYGMGWFRQAPGKEREFVTGISSAGSWIGDITSYADSVKGRFTISRDNAKNILYLQMNSLKPEDTAVYYCAAAYHGSRYYVGSTANEYTTWGQGTQVTVSS |
| 0.847 | 3.8 | anti-IL-12Rβ2 VHH clone 20530 (VHH, not shown: small tags and cut ends, tested as periplasmic extract; also called 2CAMS7) VHH: QVQLQESGGGLVQAGDSLRLSCAASGRTFSNYNMGWLRQAPGKEREFVTGISSAGSWIGDITSYADSVKGRFTISRDNAKNILYLQMNSLKPEDTAVYYCAAAYHGSRYYVGSTANEYTTWGQGTQVTVSS |
| 1.05 | 14.5 | anti-IL-12Rβ2 VHH clone 20493 (VHH, not shown: small tags and cut ends, tested as periplasmic extract; also called 2CAM62) VHH: QVQLQESGGGLVQAEGSLRLSCVASGRTFSSYGMGWFRQAPGKEREFVTGISSAGSWIGDITSYADSVKGRFTISRDNAKNILYLQMNSLKPEDTAVYYCAAAYHGSRYYVGSTANEYTTWGQGTQVTVSS |
